Assays:
[1] = molecular target: T1, Lamin A/C IgF domain (411-566) (human, UniProt P02545 411-566); test: cryo-EM structure; BAF-Lamin A/C IgF-nucleosome complex, high gel mobility (fraction 1); BAF 3-fold, Lamin A/C IgF 6-fold over 0.93 uM nucleosome (193 bp DNA), 30 min 30 °C, GraFix with glutaraldehyde; 3.82 Å; details: both partners purified
T1 construct: Lamin A/C, human, residues 411-566 (IgF domain); MBP cut on-column with TEV protease; also called Lamin A/C (411-566); Ig-fold domain of Lamin A/C; source: E. coli Rosetta 2 (DE3), purified (amylose resin, Superdex 75); not shown: MBP, N-terminal, cleaved
T1 sequence (looked up): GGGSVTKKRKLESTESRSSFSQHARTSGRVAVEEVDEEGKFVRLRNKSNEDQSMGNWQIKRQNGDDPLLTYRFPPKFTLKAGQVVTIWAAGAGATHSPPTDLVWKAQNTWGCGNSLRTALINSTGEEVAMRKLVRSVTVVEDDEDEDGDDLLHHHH

[2] = molecular target: the molecule itself; test: as above

binding result [1]: binds
B1: Barrier-to-autointegration factor (BAF) (natural protein, human, UniProt O75531 1-89, looked up)
chain: MTTSQKHRDFVAEPMGEKPVGSLAGIGEVLGKKLEERGFDKAYVVLGQFLVLKKDEDLFREWLKDTCGANAKQSRDCFGCLREWCDAFL
notes: Barrier-to-autointegration factor (BAF), human, full length; His tag cut with thrombin; also called human BAF; full-length BAF; not shown: His6, N-terminal, cleaved
binding result [2]: binds

From PMC11811190, “Cryo-EM structures of the BAF-Lamin A/C complex bound to nucleosomes” (Nature Communications, 2025)
